According to publication PMC6037002, “Drug targeting to decrease cardiotoxicity – determination of the cytotoxic effect of GnRH-based conjugates containing doxorubicin, daunorubicin and methotrexate on human cardiomyocytes and endothelial cells” (Beilstein Journal of Organic Chemistry, 2018):
Where two headings read alike, the source gives them in different places.

Assays:
[1] = system: human umbilical vein endothelial cells (HUVEC); assay: Impedimetric measurement (xCELLigence SP), delta slope, HUVEC; details: for delta slope (DS), short-term / delta slope (DS), long-term: HUVEC, three parallels; for delta slope (DS), short-term: 0–2 h; for delta slope (DS), long-term: 0–72 h; for Cardiotoxicity, HUVEC: grade +++/++/+/0, key not given, summary of impedimetric cytotoxicity; for cytotoxic effect on HUVEC, result in words: long-term (0–72 h), 10^−8–10^−6 mol/L, impedimetry, one-way ANOVA
Source text: (§1) The main objective of the study reported here was to evaluate the in vitro cardiotoxic effects (as undesired side effects) of […] GnRH-III-based conjugates containing doxorubicin, daunorubicin and methotrexate on two essential target cells of cardiovascular diseases: vascular endothelial cells and cardiomyocytes. The rate of cytotoxicity (antitumor effect) vs cardiotoxicity (toxic effects on cardiomyocytes and vascular endothelium) is an important factor for efficient drug development for targeted tumor therapy with minimized side effects. The technique used in this work – impedimetry – is a dedicated one for real-time monitoring of cells to distinguish short-term (0–2 hours) and long-term (0–72 hours) effects elicited by the drug or carrier–drug conjugates. The basic theory of impedimetry is that proliferation/viability of cells is well detectable by monitoring of the electric impedance (Z) in an AC environment, due to the electric insulator character of intact surface membranes composed of the phospholipid bilayer. […] While cell physiological responses of short-term exposures result in characteristic changes of cell morphology (e.g., spreading), long-term effects characteristically influence in particular the proliferation of cells, and therefore the cytotoxic effects. The presented dimensionless values of delta slope (DS) measure the difference between the slope of the curve corresponding to the treatment and that of the control curve in impedimetric recordings, the negative signs refer to the relative values to the identical control.
(§2) Experimental part – Cellular samples
(§3) In the present study, GnRH conjugates containing anti-tumour drugs (e.g., daunorubicin, doxorubicin) were investigated in order to evaluate whether the conjugates exert a decrease cardiotoxic effect compared to that of the free drugs. The cardiac myocytes and the vascular endothelium cells are the most frequently detected target cells of antitumor compounds and they are employed in our study. Human umbilical vein endothelial cells (HUVEC; Promocell, Biomedica, Wien, Austria) were cultured in Endothelial Cell Growth Medium with Endothelial Cell Growth Supplement Mix (Promocell, Biomedica, Wien, Austria) and 100 µg/mL penicillin/streptomycin. Primary human cardiac myocytes (HCM; Promocell, Biomedica, Wien, Austria) were cultured in Myocyte Growth Medium (Promocell, Biomedica, Wien, Austria).
(§4) Impedimetric measurements
(§5) The xCELLigence SP system was used for impedimetric measurements. The bottom of the wells of a 96-well E-plate is installed with a golden electrode array that constitutes the adhesion surface. Adhering cells – acting as insulators – change the electric impedance measured on the electrodes. The measured impedance change is in direct correlation with the number of adhering cells and the extent of adhesion. The results of impedance change are given in the form of Cell Index (CI) calculated by the xCELLigence system according to the […]
(§6) where Zt is the measured impedance in a time point, Zb is the background impedance and F is an inbuilt factor (F = 15 at 10 kHz) depending on the frequency of the alternating current. The measurements took place in an incubator holding a 37 °C temperature and 5% carbon-dioxide […]
(§7) The experiments started with a measurement of baseline impedance for 1 hour. After that, the cells (10^4 cells/well) were added to the wells and allowed to adhere to the electrodes. When the adhering cells reached a balanced state in the wells, signified by the impedance curves […]
(§8) free drugs at 10−12 – 10−6 M and the conjugates at 10−8 – 10−6 M final concentrations were […]
(§9) added to the wells. The changes in impedance were measured for at least 72 hours. For each measurement three parallels were measured.
(§10) The evaluation of responses followed the previously described strategy: acute effects of compounds were evaluated as a characteristic morphology of the curves in the 0–2 hours

[2] = system: HT-29 human colon adenocarcinoma cells; details: MTT assay; cited from earlier work
Source text: (§11) Table 1 Comparative study of cytotoxic effects and cardiotoxicity elicited by GnRH-based antitumor compounds (1–15) and reference substances (AN-152, Dox, Dau, Mtx). IC50 values show antitumor cytotoxic characteristics of the conjugates in human breast cancer (MCF-7), human colorectal adenocarcinoma (HT-29) and human acute monocytic leukemia (MM6) derived cell lines as representative tumor cells.

[3] = system: human acute monocytic leukemia (MonoMac6) cells; details: cited from earlier work
Source text: as §11

[4] = system: MCF-7 human breast adenocarcinoma cells; details: MTT assay; cited from earlier work
Source text: as §11

[5] = system: primary human cardiac myocytes (HCM); details: for delta slope (DS), short-term / delta slope (DS), long-term: HCM, three parallels; for delta slope (DS), short-term: 0–2 h; for delta slope (DS), long-term: 0–72 h; for Cardiotoxicity, HCM: grade +++/++/+/0, key not given, summary of impedimetric cytotoxicity; for cytotoxic effect on HCM, result in words: long-term (0–72 h), 10^−8–10^−6 mol/L (free drugs 10^−12–10^−6 mol/L), impedimetry, one-way ANOVA
Source text: as §1, §2, §3, §4, §5, §6, §7, §8, §9, §10

Row | Substance | delta slope (DS), short-term ([1]; Table S2a, 10^-6 mol/L) | delta slope (DS), short-term ([1]; Table S2a, 10^-7 mol/L) | delta slope (DS), short-term ([1]; Table S2a, 10^-8 mol/L) | delta slope (DS), long-term ([1]; Table S2a, 10^-7 mol/L) | delta slope (DS), long-term ([1]; Table S2a, 10^-8 mol/L) | IC50 [2] [nM] | IC50 [3] [nM] | IC50 [4] [nM] | delta slope (DS), short-term ([5]; Table S2b, 10^-6 mol/L) | delta slope (DS), short-term ([5]; Table S2b, 10^-7 mol/L) | delta slope (DS), short-term ([5]; Table S2b, 10^-8 mol/L) | delta slope (DS), long-term ([5]; Table S2b, 10^-6 mol/L) | delta slope (DS), long-term ([5]; Table S2b, 10^-7 mol/L) | delta slope (DS), long-term ([5]; Table S2b, 10^-8 mol/L) | Cardiotoxicity, HUVEC [1] | cytotoxic effect on HUVEC, result in words [1] | Cardiotoxicity, HCM [5] | cytotoxic effect on HCM, result in words [5] | further results
1 | Glp-His-Trp-Ser-Tyr-D-Lys(Dox-O-glut)-Leu-Arg-Pro-Gly-NH2 [AN-152, reference compound] | 0.031 | 0.014 | -0.004 | −0.029 | -0.005 | 1900 ± 300 | 35 ± 10 | 200 ± 100 | 0.008 | -0.001 | 0.001 | −0.023 | −0.008 | -0.001 |  |  |  |  | delta slope (DS), long-term ([1]; Table S2a, 10^-6 mol/L): −0.051; delta slope (DS), long-term ([1]; Table S2a, 10^-6 mol/L, listed as An-152): -0.051; delta slope (DS), long-term ([1]; Table S2a, 10^-7 mol/L, listed as An-152): -0.029; delta slope (DS), long-term ([5]; Table S2b, 10^-6 mol/L, listed as An-152): -0.023; delta slope (DS), long-term ([5]; Table S2b, 10^-7 mol/L, listed as An-152): -0.008
2 | GnRH-III(Dau=Aoa-K(Dau=Aoa)) [conjugate 12] |  |  |  |  |  | 5600 ± 2000 | > 1000 | 3000 ± 400 |  |  |  |  |  |  | 0 | completely lost the cytotoxic effect | 0 | completely lost their cytotoxic effect | delta slope (DS), short-term ([1]; Table S3a, 10^-6 mol/L): -0.003; delta slope (DS), short-term ([1]; Table S3a, 10^-7 mol/L): 0.010; delta slope (DS), short-term ([1]; Table S3a, 10^-8 mol/L): 0.009; delta slope (DS), long-term ([1]; Table S3a, 10^-6 mol/L): -0.001; delta slope (DS), long-term ([1]; Table S3a, 10^-7 mol/L): -0.001; delta slope (DS), long-term ([1]; Table S3a, 10^-8 mol/L): -0.001; delta slope (DS), short-term ([5]; Table S3b, 10^-6 mol/L): -0.001; delta slope (DS), short-term ([5]; Table S3b, 10^-7 mol/L): -0.001; delta slope (DS), short-term ([5]; Table S3b, 10^-8 mol/L): -0.001; delta slope (DS), long-term ([5]; Table S3b, 10^-6 mol/L): -0.002; delta slope (DS), long-term ([5]; Table S3b, 10^-7 mol/L): -0.001; delta slope (DS), long-term ([5]; Table S3b, 10^-8 mol/L): -0.001
3 | GnRH-III(Dox=Aoa-GFLG) [conjugate 3] | -0.006 | -0.003 | -0.002 | -0.001 | 0.0004 | 46100 ± 6100 | 430 ± 40 | 5400 ± 1900 | -0.002 | 0.001 | 0.004 | −0.007 | -0.001 | 0.002 |  |  |  |  | delta slope (DS), long-term ([1]; Table S2a, 10^-6 mol/L, listed as 3): -0.009; delta slope (DS), long-term ([1]; Table S2a, 10^-6 mol/L, listed as GnRH-III(Dox=Aoa-GFLG)): −0.009
4 | GnRH-III(Mtx-K(Dau=Aoa)) [conjugate 13] |  |  |  |  |  | 5600 ± 3000 | 1410 ± 390 | 5400 ± 700 |  |  |  |  |  |  | 0 | no significant effect was detected | 0 | none of the two investigated mixed drug–GnRH-III conjugates (13 and 15) exerted any significant cytotoxic effect | delta slope (DS), short-term ([1]; Table S5a, 10^-6 mol/L): 0.013; delta slope (DS), short-term ([1]; Table S5a, 10^-7 mol/L): 0.002; delta slope (DS), short-term ([1]; Table S5a, 10^-8 mol/L): 0.001; delta slope (DS), long-term ([1]; Table S5a, 10^-6 mol/L): 0.001; delta slope (DS), long-term ([1]; Table S5a, 10^-7 mol/L): 0.001; delta slope (DS), long-term ([1]; Table S5a, 10^-8 mol/L): -0.001; delta slope (DS), short-term ([5]; Table S5b, 10^-6 mol/L): -0.003; delta slope (DS), short-term ([5]; Table S5b, 10^-7 mol/L): 0.002; delta slope (DS), short-term ([5]; Table S5b, 10^-8 mol/L): -0.002; delta slope (DS), long-term ([5]; Table S5b, 10^-6 mol/L): -0.001; delta slope (DS), long-term ([5]; Table S5b, 10^-7 mol/L): -0.001; delta slope (DS), long-term ([5]; Table S5b, 10^-8 mol/L): -0.001
